The results in this text go back to article PMC7846786, “DutaFabs are engineered therapeutic Fab fragments that can bind two targets simultaneously” (Nature Communications, 2021).

Conditions in all cases: both partners purified
For assay [1], the target named is T1, recombinant human PDGF-BB (human, UniProt P01127).
T1 construct: platelet-derived growth factor subunit B, human; homodimer; Two suppliers and two Peprotech catalogue numbers are printed; also called PDGF-BB dimer; source: bought: R&D Systems (ELISAs); bought: Peprotech (catalog number 100-14B for panning; 100-13A printed for crystallisation)
Nature of the assay: ELISA; IC50 competition ELISA: rhVEGFR-1-Fc (1 µg/mL) or rhPDGFRβ-Fc (0.5 µg/mL) coated; ligand (5 pM VEGFA-165, 8 pM VEGFA-121 or 5 pM PDGF-BB) pre-incubated 1.5 h with 1:2 dilutions of Fab in PBS, 0.1% Tween-20, 1% BSA; 10 min on the plate at RT; free ligand detected with biotinylated anti-hVEGF or anti-hPDGF-BB goat IgG; 4-parameter fit. (An ELISA detects its analyte on a solid surface through an enzyme-linked reagent.)

The target in assay [2] is T2, recombinant human VEGFA-165 (Homo sapiens, UniProt P15692-4, strain).
T2 construct: homodimer; source: bought: Humanzyme
The description is as above.

Assay [3] concerns the target T3, recombinant human VEGFA-121 (Homo sapiens, strain).
T3 construct: homodimer; Two suppliers are named for different experiments; also called VEGFA dimer; source: bought: Peprotech (catalog number 100-20A; panning, crystallisation); bought: Humanzyme (ELISAs)
T3 chain: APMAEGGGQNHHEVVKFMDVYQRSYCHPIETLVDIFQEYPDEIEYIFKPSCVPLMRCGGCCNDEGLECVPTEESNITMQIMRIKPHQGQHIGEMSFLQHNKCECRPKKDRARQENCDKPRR
Described as above.

For assay [4], the target named is T4, human VEGFA-121 (Homo sapiens, UniProt P15692).
T4 construct: homodimer
Nature of the assay: SPR; affinities of the Fab fragments used in the in-vivo study for human and rat VEGF-A121, expressed as KD (nM); who was immobilised and the conditions not given. In general terms: SPR reads the build-up and loss of mass on a sensor chip optically.

The next assay concerns the target T5, rat VEGF-A121 (Rattus norvegicus, UniProt P16612-4, strain).
T5 construct: The homodimer is stated for VEGFA in general
Described as above.

Assay [5] addresses T4, human VEGFA-121. Nature of the assay: kinetic exclusion assay (KinExA); in solution; 4 h pre-incubation of 50 pM DutaFab with 244 fM-4 nM PDGF-BB, or of 100 pM DutaFab with 122 fM-2 nM VEGFA-121; duplicate 1:2 titration series; 25 °C.
In assay [6] the target is T6, PDGF-BB (Homo sapiens, UniProt P01127).
T6 construct: platelet-derived growth factor subunit B, human, recombinant; homodimer PDGF-BB; as I recall, the commercial protein is the 109-residue mature B chain (residues 82-190 of the precursor); also called recombinant human PDGF-BB; source: 100-13A is printed for crystallization) and from R&D Systems
The assay is described as above.

For assay [7], the target named is T6, PDGF-BB. The description is as above. This is another data set of the same source.

T6 sequence (P01127 82-190): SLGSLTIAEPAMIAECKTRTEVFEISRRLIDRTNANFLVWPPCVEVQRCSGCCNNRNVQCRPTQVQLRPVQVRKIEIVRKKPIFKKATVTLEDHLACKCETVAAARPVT
T4 sequence (P15692 other isoform, or with tags, fused parts or gaps): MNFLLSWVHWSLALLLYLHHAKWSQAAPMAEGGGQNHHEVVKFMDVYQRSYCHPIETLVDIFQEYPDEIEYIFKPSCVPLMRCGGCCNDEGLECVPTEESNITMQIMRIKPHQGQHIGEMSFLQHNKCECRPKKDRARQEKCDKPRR
T2 sequence (P15692 whole entry, looked up, change not shown): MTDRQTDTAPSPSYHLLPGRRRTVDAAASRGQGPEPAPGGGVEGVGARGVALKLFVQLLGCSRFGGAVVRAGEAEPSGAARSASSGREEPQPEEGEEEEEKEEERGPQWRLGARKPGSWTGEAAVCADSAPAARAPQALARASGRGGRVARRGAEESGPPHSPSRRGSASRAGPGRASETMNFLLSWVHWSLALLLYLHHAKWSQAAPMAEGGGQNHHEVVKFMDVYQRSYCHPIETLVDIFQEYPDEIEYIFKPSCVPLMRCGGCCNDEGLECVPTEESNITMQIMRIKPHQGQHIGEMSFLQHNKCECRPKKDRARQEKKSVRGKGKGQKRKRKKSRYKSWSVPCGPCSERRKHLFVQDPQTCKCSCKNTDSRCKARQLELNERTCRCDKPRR
T1 sequence (P01127 82-190): as the sequence (P01127 82-190) above

B1: DutaFab clone VP (initial bispecific DutaFab against VEGFA and PDGF-BB) (Fab, V domains shown)
VH: EEQLVESGGGLVQPGGSLRLSCAASGWWFEYTDMSWVRQAPGQGLEWVGSISPSGGSTYYNTNFIGRFTISRDDSKNTLYLQMNSLRDEDTAVYYCARDEGYFDEWGQGTLVTVSS
VL: AIQMTQSPSSLSASVGDRVTITCQASYWLHKYLAWYQQKPGQAPKLLIYDASELEYGVPDRFSGSGSGTDFTLTISSLEPEDFAVYYCQNYRYHPYTFGQGTKLEIK
notes: human VH3 scaffold with CH1; H-side paratope against PDGF-BB; human Vk1 scaffold with Ck; L-side paratope against VEGFA; Bispecific Fab with two paratopes in one Fv; also called DutaFab VP; original bispecific DutaFab VP; source: periplasmic expression in E. coli or HEK Expi293 cells, purified (kappa select, then cation exchange or SEC)
With B1, the figures for the IC50 in assay [1], in assay [2] and in assay [3] were 21 nM, 0.023 nM and 0.894 nM, respectively.

B2: DutaFab VP mat YHE (Fab, V domains shown)
VH: DLQLVESGGGLVKPGGSLRLSCAADGWWFGYTDMSWVRQAPGKGLEWVGSISYKGGSTYYNTKFIGRFTISRDDDTNTLYLQMNSLRAEDTAVYYCARDDGYFDTWGQGTLVTVSS
VL: AIYMHQEPSSLSASVGDRVTITCHGSYWLSNYLAWYQQKPGKAPKLLIYDGKEREHGVPSRFSGSGSHEDYTLTISSLQPEDFATYYCQQYRYHPYTFGHGTKVEIK
notes: human CH1 constant domain, as the heavy chain of Dm1 (PDB 6T9D, 6T9E); that R108 may be the first residue of the UniProt entry, so it must not be doubled; Co-operativity variant of Dm1; the PDB entries hold the parent VP mat; also called clone VP mat YHE; source: periplasmatic expression in E. coli or HEK Expi293 cells, purified (kappa select, then cation exchange or SEC)
B2: the Kd with human VEGFA-121 [4] came out at 0.005 nM; with rat VEGF-A121 it was 0.043 nM; with human VEGFA-121 [5], 0.00323 nM; with PDGF-BB [6], 0.006 nM; with PDGF-BB [7] it was 0.00402 nM.

For orientation: IC50 means the concentration that inhibits the measured activity by half. What is called Kd is a measure of binding affinity in units of concentration. Higher therefore signals weaker binding.
